Results from patent publication US10806913B2, “Methods for better delivery of active agents to tumors” (Sorrento Therapeutics, Inc., priority 2015, dated 2020).
“Also recorded” adds a separate entry of the source.

Experiments:
[1] = In vivo near infrared imaging of lymphatic delivery after administration to the skin; design: species or system rats; conditions: fluorescently tagged, needle array placed dorsally, FIG. 11 and 12
Experimental: The ability to deliver the protein therapeutic Etanercept directly to the lymphatic system via administration to the skin was tested. Etanercept was fluorescently tagged for in vivo visualization using near infrared light as previous described, see Sevick-Muraca et al., J. Clin Invest., 124(3), 905-914 (2014), which is incorporated by reference herein for its teachings thereof. Etanercept was administered to the skin of rats by μlacing a delivery device comprising an array of needles dorsally on the rats.

[2] = Biodistribution across tissue types after delivery to the skin; assay type: in vivo, rats; conditions: skin delivery compared to i.v., s.c. or i.d., FIG. 13
From the text: The biodistribution of etanercept across multiple tissues types following delivery was investigated.

[3] = Blood serum absorption rate after delivery to the skin; assay type: in vivo; conditions: skin administration compared to i.v., s.c. or i.d.; FIG. 14

With Etanercept the “lymphatic uptake and distribution to lymph nodes” value [1] was “uptake by the lymphatic vasculature and subsequent distribution to primary and secondary lymph node tissues”, the “lymphatic uptake and distribution to lymph nodes” value ([1]; listed as Etanercept) was “delivery directly to the lymphatic vasculature and lymph node tissues; also recorded: delivery to the axillary and mandibular lymph nodes” and the “levels within the axillary and inguinal lymph nodes” value [2] was “much higher levels”. For the same substance, the “levels within the axillary and inguinal lymph nodes” value ([2]; listed as Etanercept) was “increased delivery to the lymph nodes” and the “blood serum absorption rate” value [3] was “approximately the same”.
